We go through 43 variants from the Human Domainome abundance scans (Beltran et al. 2025).

± gives the uncertainty stated by the source.

The labels stand for the following.
B1: Proto-oncogene vav, residues 782 to 842; numbered along this chain, P15498 (parent)
chain: KYFGTAKARYDFCARDRSELSLKEGDIIKILNKKGQQGWWRGEIYGRVGWFPANYVEEDYS

The variants in the data set derive from B1. Put plainly: abundance fitness (aPCA) (normalised: wild type 0, dead -1); higher = more abundant; growth selection in yeast, the domain comes from the species named. Conditions: Homo sapiens.
As for KYFGTAKARYDFCARDRSELSLKEGDIIKILNKKGQQGWWRGEIYGRVGWFPANYVEEDSS [Y60S], the abundance fitness worked out at 0.016 ± 0.071.
Consider KYFGTAKARYDFCARDRSELSLKEGDIIKILNKKGQQGWWRGEIYGRVGWFPANYVEEDPS [Y60P], for which the abundance fitness is -0.183 ± 0.11.
For KYFGTAKARYDFCARDRSELSLKEGDIIKILNKKGQQGWWRGEIYGRVGWFPANYVEEDKS [Y60K] the value was -0.122 ± 0.19; for KYFGTAKARYDFCARDRSELSLKEGDIIKILNKKGQQGWWRGEIYGRVGWFPANYVEEDVS [Y60V], 0.134 ± 0.098.
The figure for KYFGTAKARYDFCARDRSELSLKEGDIIKILNKKGQQGWWRGEIYGRVGWFPANYVEEDQS [Y60Q] is -0.097 ± 0.12; for KYFGTAKARYDFCARDRSELSLKEGDIIKILNKKGQQGWWRGEIYGRVGWFPANYVEEDCS [Y60C] it is -0.119 ± 0.14; for KYFGTAKARYDFCARDRSELSLKEGDIIKILNKKGQQGWWRGEIYGRVGWFPANYVEEDLS [Y60L] it is 0.062 ± 0.057.
For KYFGTAKARYDFCARDRSELSLKEGDIIKILNKKGQQGWWRGEIYGRVGWFPANYVEEDMS [Y60M] the value was 0.009 ± 0.1.
Turning to KYFGTAKARYDFCARDRSELSLKEGDIIKILNKKGQQGWWRGEIYGRVGWFPANYVEEDIS [Y60I], the abundance fitness is -0.024 ± 0.12.
In the case of KYFGTAKARYDFCARDRSELSLKEGDIIKILNKKGQQGWWRGEIYGRVGWFPANYVEEDFS [Y60F], the abundance fitness was determined as 0.017 ± 0.15.
The figure for KYFGTAKARYDFCARDRSELSLKEGDIIKILNKKGQQGWWRGEIYGRVGWFPANYVEEDGS [Y60G] is -0.039 ± 0.085; for KYFGTAKARYDFCARDRSELSLKEGDIIKILNKKGQQGWWRGEIYGRVGWFPANYVEEDDS [Y60D] it is 0.106 ± 0.18; for KYFGTAKARYDFCARDRSELSLKEGDIIKILNKKGQQGWWRGEIYGRVGWFPANYVEEDRS [Y60R] it is -0.005 ± 0.073.
For KYFGTAKARYDFCARDRSELSLKEGDIIKILNKKGQQGWWRGEIYGRVGWFPANYVEEDHS [Y60H] the value was 0.027 ± 0.17; for KYFGTAKARYDFCARDRSELSLKEGDIIKILNKKGQQGWWRGEIYGRVGWFPANYVEEDWS [Y60W], -0.169 ± 0.12; for KYFGTAKARYDFCARDRSELSLKEGDIIKILNKKGQQGWWRGEIYGRVGWFPANYVEEDAS [Y60A], -0.079 ± 0.088.
For KYFGTAKARYDFCARDRSELSLKEGDIIKILNKKGQQGWWRGEIYGRVGWFPANYVEEDES [Y60E] the value was 0.005 ± 0.13; for KYFGTAKARYDFCARDRSELSLKEGDIIKILNKKGQQGWWRGEIYGRVGWFPANYVIEDYS [E57I], -0.073 ± 0.11.
In the case of KYFGTAKARYDFCARDRSELSLKEGDIIKILNKKGQQGWWRGEIYGRVGWFPANYVFEDYS [E57F], the abundance fitness is -0.175 ± 0.14.
The figure for KYFGTAKARYDFCARDRSELSLKEGDIIKILNKKGQQGWWRGEIYGRVGWFPANYVKEDYS [E57K] is -0.313 ± 0.12; for KYFGTAKARYDFCARDRSELSLKEGDIIKILNKKGQQGWWRGEIYGRVGWFPANYVYEDYS [E57Y] it is -0.106 ± 0.11.
As to KYFGTAKARYDFCARDRSELSLKEGDIIKILNKKGQQGWWRGEIYGRVGWFPANYVPEDYS [E57P], the abundance fitness was -1.02 ± 0.27.
In the case of KYFGTAKARYDFCARDRSELSLKEGDIIKILNKKGQQGWWRGEIYGRVGWFPANYVHEDYS [E57H], the abundance fitness is -0.424 ± 0.17.
For KYFGTAKARYDFCARDRSELSLKEGDIIKILNKKGQQGWWRGEIYGRVGWFPANYVNEDYS [E57N] the value was -0.185 ± 0.16; for KYFGTAKARYDFCARDRSELSLKEGDIIKILNKKGQQGWWRGEIYGRVGWFPANYVLEDYS [E57L], -0.194 ± 0.065.
For KYFGTAKARYDFCARDRSELSLKEGDIIKILNKKGQQGWWRGEIYGRVGWFPANYVWEDYS [E57W] the value was -0.478 ± 0.13; for KYFGTAKARYDFCARDRSELSLKEGDIIKILNKKGQQGWWRGEIYGRVGWFPANYVTEDYS [E57T], 0.025 ± 0.074; for KYFGTAKARYDFCARDRSELSLKEGDIIKILNKKGQQGWWRGEIYGRVGWFPANYVAEDYS [E57A], -0.052 ± 0.074.
For KYFGTAKARYDFCARDRSELSLKEGDIIKILNKKGQQGWWRGEIYGRVGWFPANYVSEDYS [E57S] the value was -0.059 ± 0.074.
As for KYFGTAKARYDFCARDRSELSLKEGDIIKILNKKGQQGWWRGEIYGRVGWFPANYVDEDYS [E57D], the abundance fitness was -0.172 ± 0.2.
As for KYFGTAKARYDFCARDRSELSLKEGDIIKILNKKGQQGWWRGEIYGRVGWFPANYVQEDYS [E57Q], the abundance fitness was -0.109 ± 0.12.
For the variant KYFGTAKARYDFCARDRSELSLKEGDIIKILNKKGQQGWWRGEIYGRVGWFPANYVCEDYS [E57C], the abundance fitness was -0.284 ± 0.16.
With KYFGTAKARYDFCARDRSELSLKEGDIIKILNKKGQQGWWRGEIYGRVGWFPANYVREDYS [E57R], the abundance fitness was -0.123 ± 0.071.
The figure for KYFGTAKARYDFCARDRSELSLKEGDIIKILNKKGQQGWWRGEIYGRVGWFPANYVMEDYS [E57M] is -0.105 ± 0.098.
As for KYFGTAKARYDFCARDRSELSLKEGDIIKILNKKGQQGWWRGEIYGRVGWFPANYVVEDYS [E57V], the abundance fitness is -0.001 ± 0.076.
For KYFGTAKARYDFCARDRSELSLKEGDIIKILNKKGQQGWWRGEIYGRVGWFPANYYEEDYS [V56Y] the value was -0.325 ± 0.32; for KYFGTAKARYDFCARDRSELSLKEGDIIKILNKKGQQGWWRGEIYGRVGWFPANYSEEDYS [V56S], -0.919 ± 0.14.
On to KYFGTAKARYDFCARDRSELSLKEGDIIKILNKKGQQGWWRGEIYGRVGWFPANYWEEDYS [V56W], for which the abundance fitness is -0.543 ± 0.091.
On to KYFGTAKARYDFCARDRSELSLKEGDIIKILNKKGQQGWWRGEIYGRVGWFPANYVEEDYE [S61E], for which the abundance fitness was -0.235 ± 0.17.
As for KYFGTAKARYDFCARDRSELSLKEGDIIKILNKKGQQGWWRGEIYGRVGWFPANYVEEDYK [S61K], the abundance fitness is -0.196 ± 0.25.
For KYFGTAKARYDFCARDRSELSLKEGDIIKILNKKGQQGWWRGEIYGRVGWFPANYVEEDYA [S61A] the value was -0.073 ± 0.18; for KYFGTAKARYDFCARDRSELSLKEGDIIKILNKKGQQGWWRGEIYGRVGWFPANYVEEDYC [S61C], 0.071 ± 0.18; for KYFGTAKARYDFCARDRSELSLKEGDIIKILNKKGQQGWWRGEIYGRVGWFPANYVEEDYP [S61P], 0.232 ± 0.15.
